In experiment [1] the target is T1, biotin conjugated 24 amino acid peptide of the extracellular loop of human EMP2 (human, biotin conjugated (position not given)).
T1 construct: The EMP2 part is followed by a GSGSK tail; also called hEMP2 peptide; hEMP2
T1 peptide: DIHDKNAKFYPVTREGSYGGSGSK
Briefly: ELISA on cognate EMP2 peptide (data not shown). (In general: An ELISA detects its analyte on a solid surface through an enzyme-linked reagent.)

The target of experiment [2] is T1, biotin conjugated 24 amino acid peptide …. Description: ELISA on peptide-coated plates. The procedure:
(§1) 10 μg/mL of biotinylated 24 amino acid peptide (see the phage library selection section above) was coated onto streptavidin-coated 96-well plates (Roche Applied Science, Indianapolis, Ind.) in PBS for 1 hour at room temperature. Plates were then washed with PBS and blocked with 2% milk PBS for 2 hours at 37° C. Expressed phage antibodies or diabodies were added to each well, incubated at room temperature for 1 hour, and washed with 0.05% PBS/Tween three times. Bound antibodies or diabodies were detected with mouse anti-c-Myc (9E10) antibody (Calbiochem, San Diego, Calif.), followed by horseradish peroxidase (HRP) conjugated anti-mouse antibody (BD Bioscience Pharmingen, Franklin Lakes, N.J.) and TMB solution (eBioscience, San Diego, Calif.). Plates were read by microplate reader Model 550 (Bio-Rad, Hercules, Calif.) at 450 nm.
(§2) Specificity and titer of selected diabodies were initially tested by ELISA using plates coated with hEMP2 or mEMP2 peptides. […] Using monovalent scFv products of these two antibodies, the EC₅₀ for cognate EMP2 peptide was >2 μg/mL (data not shown). Thus, divalency contributed to the avidity of the two anti-EMP2 diabodies.

In experiment [3] the target is T2, biotin conjugated 24 amino acid peptide of the extracellular loop of mouse EMP2 (mouse, biotin conjugated (position not given)).
T2 construct: The EMP2 part is followed by a GSGSK tail; also called mEMP2 peptide; mEMP2
T2 peptide: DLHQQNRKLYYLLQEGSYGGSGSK
Briefly: ELISA, diabody titration on mEMP2 peptide on streptavidin plates. Here is the method:
as §1, §2

Experiment [4] deals with T2, biotin conjugated 24 amino acid peptide …. Description: method and target not given; reference is the original scFv.
Experiment [5] shares this target. Briefly: ELISA on peptide-coated plates. Here is the method: as §1, §2
Experiment [6] deals with T1, biotin conjugated 24 amino acid peptide …. Description: ELISA, diabody titration on hEMP2 peptide on streptavidin plates. Here is the method: as §1, §2
Experiment [7] shares this target. Briefly: method and target not given; reference is the original scFv.
Experiment [8] deals with T2, biotin conjugated 24 amino acid peptide …. Briefly: ELISA on cognate EMP2 peptide (data not shown).

Bounds are passed on as bounds.

B1: KS49 monovalent scFv (scFv)
scFv: MAQVQLVQSGGGVVQPGRSLRLSCAASGFTFSSYAMHWVRQAPGKGLEWVAVISYDGSNKYYADSVKGRFTISRDNSKNTLYLQMNSLRAEDTAVYYCARDRRGRKSAGIDYWGQGTLVTVSSGGGGSGGGGSGGGGSDIQMTQSPSSLSASVGDRVTITCQASQDISNYLNWYQQKPGKAPKLLIYAASSLQSGVPSRFSGSGSGTDFTLTISSLQPEDFATYYCLQDYNGWTFGQGTKVDIKRAAAEQKLISEEDLNGAAHHHHHH
notes: The original scFv before the linker was shortened; also called KS49 scFv
Broadly, the EC50 is the concentration needed to bring the measured effect to its halfway point. Higher therefore signals a need for much substance. In experiment [1], B1 displayed an EC50 greater than 2 µg/mL.

B2: anti-EMP2 diabody KS83 (other)
chain: MAQVQLVESGGGLVQPGGSLRLSCAASGFTFSSYAMHWVRQAPGKGLEWVAVISYDGSNKYYADSVKGRFTISRDNSKNTLYLQMNSLRAEDTAVYYCARTVGATGAFDIWGQGTMVTVSSSSGGGSDIVMTQSPSTVSASVGDRVIIPCRASQSIGKWLAWYQQKPGKAPKLLIYKASSLEGWVPSRFSGSGSGTEFSLTISSLQPDDSATYVCQQSHNFPPTFGGGTKLEIKRAAAEQKLISEEDLNGAAHHHHHH
notes: Diabody: bivalent dimer of a VH-5 aa linker-VL chain with c-Myc and 6 His tags; Selected against the mEMP2 peptide; also called K83; diabody 83
In the case of B2, the binding result in experiment [2] is on record as “no binding”. In experiment [3], this molecule gave an EC50 of 0.00932 µg/mL. Moreover, the “fold increase in binding activity compared to original scFvs” value in experiment [4] was greater than 20 fold.

B3: anti-EMP2 diabody KS49 (other)
chain: MAQVQLVQSGGGVVQPGRSLRLSCAASGFTFSSYAMHWVRQAPGKGLEWVAVISYDGSNKYYADSVKGRFTISRDNSKNTLYLQMNSLRAEDTAVYYCARDRRGRKSAGIDYWGQGTLVTVSSSGGGSDIQMTQSPSSLSASVGDRVTITCQASQDISNYLNWYQQKPGKAPKLLIYAASSLQSGVPSRFSGSGSGTDFTLTISSLQPEDFATYYCLQDYNGWTFGQGTKVDIKRAAAEQKLISEEDLNGAAHHHHHH
notes: Diabody: bivalent dimer of a VH-5 aa linker-VL chain with c-Myc and 6 His tags, made in E. coli TG1; Selected against the hEMP2 peptide; also called K49; anti-hEMP2 diabody
On to B3, for which the binding result in experiment [5] was “no binding”. For the same molecule, it took 0.0531 µg/mL to reach a half-maximal effect in experiment [6] (EC50). The “fold increase in binding activity compared to original scFvs” value in experiment [7] is greater than 20 fold.

B4: KS83 monovalent scFv (scFv)
scFv: MAQVQLVESGGGLVQPGGSLRLSCAASGFTFSSYAMHWVRQAPGKGLEWVAVISYDGSNKYYADSVKGRFTISRDNSKNTLYLQMNSLRAEDTAVYYCARTVGATGAFDIWGQGTMVTVSSSGGGGSGGGGSGGGGSDIVMTQSPSTVSASVGDRVIIPCRASQSIGKWLAWYQQKPGKAPKLLIYKASSLEGWVPSRFSGSGSGTEFSLTISSLQPDDSATYVCQQSHNFPPTFGGGTKLEIKRAAAEQKLISEEDLNGAAHHHHHH
notes: The original scFv before the linker was shortened; also called KS83 scFv
On to B4, for which, in experiment [8], the EC50 is greater than 2 µg/mL.

The values are drawn from US20130230527A1 (University of California, published 2013).
